The source of these data is paper PMC7672459, “Detection of genomic G-quadruplexes in living cells using a small artificial protein”.

Data set [1] deals with T1, G4P (artificial (RHAU-derived), UniProt Q9H2U1 53-75).
T1 chain: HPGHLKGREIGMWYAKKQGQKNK
As to the kind of experiment: EMSA; K+; only 20% of DNA bound at saturation; low-nM Kd, number only in figure; EMSA: 20 mM Tris-HCl pH 7.4, 75 mM KCl, 1 mM EDTA, 0.4 mg/ml BSA, 10 nM DNA, 4 C (or 37 C), 1 h; dsDNA with 30% PEG 200; pull-down: 20 mM Tris-HCl pH 7.4, 150 mM KCl, 1 mM EDTA, 0.5% Triton X-100, 4 C. Particulars: protein: recombinant, tags: N-terminal HIS, C-terminal GTGSGA-3xFLAG, label: 5' FAM.

Data set [2] addresses T1, G4P. As to the kind of experiment: EMSA; K+; two distinct Kd values, numbers only in figure; EMSA: 20 mM Tris-HCl pH 7.4, 75 mM KCl, 1 mM EDTA, 0.4 mg/ml BSA, 10 nM DNA, 4 C (or 37 C), 1 h; dsDNA with 30% PEG 200; pull-down: 20 mM Tris-HCl pH 7.4, 150 mM KCl, 1 mM EDTA, 0.5% Triton X-100, 4 C. Particulars: protein: recombinant; tags: N-terminal HIS; C-terminal GTGSGA-3xFLAG; label: 5' FAM; parallel broken-strand G4.

For data set [3], the target named is T1, G4P. In words: competition; competitor of FAM c-KIT/KRAS G4; EMSA: 20 mM Tris-HCl pH 7.4, 75 mM KCl, 1 mM EDTA, 0.4 mg/ml BSA, 10 nM DNA, 4 C (or 37 C), 1 h; dsDNA with 30% PEG 200; pull-down: 20 mM Tris-HCl pH 7.4, 150 mM KCl, 1 mM EDTA, 0.5% Triton X-100, 4 C. The note with it: protein: recombinant; tags: N-terminal HIS; C-terminal GTGSGA-3xFLAG; label: 5' FAM; parallel G4.

B1: C9orf72 (structured_DNA)
DNA: GGGGCCGGGGCCGGGGCCGGGGCC
Take B1: the binding result with G4P [1] (antiparallel G4, hairpin in equilibrium) was “binds”.

B2: PDGFR-beta (structured_DNA)
DNA: AAGGGAGGGCGGCGGGGCAGGGA
Take B2: the binding result in the data set with G4P [2] is listed as “binds”.

B3: c-KIT (structured_DNA)
DNA: TTCGGGCGGGCGCGAGGGAGGGTTTT
Take B3: in the data set with G4P [3], the binding result is “binds”.

B4: Tel (structured_DNA)
DNA: GGTTAGGGTTAGGGTTAGGGTTAGGGTTAG
With B4, the binding result with G4P [1] (mixed parallel/antiparallel G4) was “binds”.

B5: KRAS (structured_DNA)
DNA: AGGGCGGTGTGGGAAGAGGGAAGAGGGGGAGG
On to B5, for which the binding result with G4P [3] was “binds”.
